The results in this text go back to doi:10.1101/2021.02.05.429969 (bioRxiv, 2021).

Changes are numbered by the printed parent chain. Names may count otherwise.

The series deals with the molecule itself. Kind of series: crystal structure.

B1: CagFbFP-Q148N (domain or fragment)
chain: MASGMIVTDAGADQPIVFVNRAFSTITGYAPNEVLGRNARFLQGPQTDAATVARLREAIAAARPIQERILNYRKDGQPFWNQLSISPVRDETGNVVAFVGVNTDVTA
In the case of B1, the binding result was “binds”.

B2: CagFbFP-Q148H (domain or fragment)
chain: B1 chain with N102H
Consider B2, for which the binding result is listed as “binds”.

B3: CagFbFP-Q148R (domain or fragment)
chain: B1 chain with N102R
For B3, the binding result is recorded as “binds”.

B4: CagFbFP-Q148K (domain or fragment)
chain: B1 chain with N102K
In the case of B4, the binding result is on record as “binds”.

B5: CagFbFP-Q148E (domain or fragment)
chain: B1 chain with N102E
For B5, the binding result is listed as “binds”.

B6: CagFbFP-Q148D (domain or fragment)
chain: B1 chain with N102D
Consider B6, for which the binding result is “binds”.
